From paper PMC11407090, “Kinetic and in silico structural characterization of norbelladine O-methyltransferase of Amaryllidaceae alkaloids biosynthesis” (The Journal of Biological Chemistry, 2024)

Tests used:
[1] = substrate: O=Cc1ccc(O)c(O)c1; assay: LC-MS/MS methyltransferase assay, nonlinear regression; format: biochemical, Narcissus papyraceus; details: SAM as methyl donor, Zn^2+, product vanillin (3-O-methylation, major product), optimized condition pH 7.4, 45 °C
Text: (§1) LC-MS/MS methyltransferase assay, nonlinear regression on NpOMT

[2] = substrate: Oc1ccc(CCNCc2ccc(O)c(O)c2)cc1; assay: as above; format: biochemical, Narcissus papyraceus; details: SAM as methyl donor, Mg^2+, product 4'-O-methylnorbelladine, optimized condition pH 7.4, 45 °C, 30 min
Text: as §1

B1: NpOMT (Narcissus papyraceus) (protein)
chain: MGASQDDYALIHKNILHSEELLKYILETSAYPREHEQLKGLREVTEKHEWSSALVPADEGLFLSMLLKLMNAKRTIEIGVYTGYSLLTTALALPEDGKITAIDVNKSFFEIGLPFIQKAGVEHKINFIESEALPVLDQMVQEMKEEDLYDYAFVDADKSNYANYHERLVKLVRVGGAILYDNTLWYGSVAYPEYPGLHPEEEVARLSFRQLNTLLAADPRVEISQVSIGDGVTICRRLY
notes: homodimer only modelled
- Km [1]: 491 ± 51 µM
- Vmax [1]: 19.1 µM/min
- kcat [1]: 0.0637 ± 0.0025 s⁻¹
- kcat/Km [1]: 130 M⁻¹ s⁻¹
- Km [2]: 169 ± 19 µM
- Vmax [2]: 10.9 µM/min
- kcat [2]: 0.0362 ± 0.004 s⁻¹
- kcat/Km [2]: 214 M⁻¹ s⁻¹
